Values quoted from earlier work in publication PMC8836397.

Legend:
[1] = target: IVYPW (tynorphin analog)
[2] = target: WVYPW (tynorphin analog)
[3] = target: Leu-enkephalin (Homo sapiens) (UniProt P01210)
Chain of UniProt P01210 (P01210 whole entry, looked up): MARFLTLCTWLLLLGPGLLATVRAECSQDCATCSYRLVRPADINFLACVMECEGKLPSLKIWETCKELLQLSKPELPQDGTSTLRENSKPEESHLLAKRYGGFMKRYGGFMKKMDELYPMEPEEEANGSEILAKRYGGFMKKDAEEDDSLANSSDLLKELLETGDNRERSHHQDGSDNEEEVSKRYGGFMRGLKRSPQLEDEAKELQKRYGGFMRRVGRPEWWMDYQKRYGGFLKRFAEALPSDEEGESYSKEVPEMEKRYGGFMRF

Row | Substance | Ki [1] [nM] | Ki [2] [nM] | Kd [3] [nM]
1 | DPP III (from UniProt Q9NY33) | 100 | 126 | 
2 | DPP III (inactive variant) (from UniProt Q9NY33) |  |  | 3600
